Measured values reported in patent US20160304617A1.

Tests used:
[1] = target: Human 5T4 full length (human) (UniProt Q13641); assay: flow cytometry on PA1 cells, 5 µg/ml probe, anti-Fc FITC
[2] = target: Human 5T4 full length (human) (UniProt Q13641); assay: flow cytometry on SKOV3 cells, 5 µg/ml probe, anti-Fc FITC
[3] = target: Human 5T4 full length (human) (UniProt Q13641); assay: flow cytometry on recombinant MDA-MB-231-5T4 FL cells at 5 µg/ml
[4] = target: Human 5T4 full length (human) (UniProt Q13641); assay: flow cytometry on LNCaP cells, 5 µg/ml probe, anti-Fc FITC
[5] = target: Human 5T4 full length (human) (UniProt Q13641); assay: flow cytometry on PC3 cells, 5 µg/ml probe, anti-Fc FITC
[6] = target: Human 5T4 full length (human) (UniProt Q13641); assay: flow cytometry on BxPC3 cells, 5 µg/ml probe, anti-Fc FITC
[7] = target: Human 5T4 full length (human) (UniProt Q13641); assay: flow cytometry on MDAMB361 cells, 5 µg/ml probe, anti-Fc FITC
[8] = target: Human 5T4 full length (human) (UniProt Q13641); assay: flow cytometry on Rec-MDA-MB-231-5T4 cells (as the row is labelled), 5 µg/ml probe, anti-Fc FITC
[9] = target: Human 5T4 full length (human) (UniProt Q13641); assay: flow cytometry on HT29 cells, 5 µg/ml probe, anti-Fc FITC
[10] = target: Human 5T4 full length (human) (UniProt Q13641); assay: flow cytometry on DLD1 cells, 5 µg/ml probe, anti-Fc FITC
[11] = target: Human 5T4 full length (human) (UniProt Q13641); assay: flow cytometry on MBA-MB-231 cells (as the row is labelled), 5 µg/ml probe, anti-Fc FITC
[12] = target: Human 5T4 full length (human) (UniProt Q13641); assay: flow cytometry on A431 cells, 5 µg/ml probe, anti-Fc FITC

Chain of UniProt Q13641 (Q13641 32-420): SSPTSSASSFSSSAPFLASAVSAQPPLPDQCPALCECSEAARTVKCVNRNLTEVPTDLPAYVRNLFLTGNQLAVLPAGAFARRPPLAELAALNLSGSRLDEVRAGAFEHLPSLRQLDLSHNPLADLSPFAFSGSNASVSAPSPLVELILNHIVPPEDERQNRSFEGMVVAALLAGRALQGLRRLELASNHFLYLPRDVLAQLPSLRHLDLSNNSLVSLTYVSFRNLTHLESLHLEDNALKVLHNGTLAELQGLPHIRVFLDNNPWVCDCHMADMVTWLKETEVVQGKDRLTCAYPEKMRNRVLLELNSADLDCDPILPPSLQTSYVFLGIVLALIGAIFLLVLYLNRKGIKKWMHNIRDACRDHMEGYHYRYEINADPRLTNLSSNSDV

Work on unrelated (control) Fc fusion protein yielded a Median fluorescence intensity (MFI) [1] of 6 MFI, a Median fluorescence intensity (MFI) [2] of 6 MFI and a fold less binding (against the anti-5T4 proteins) [3] of 200 fold. It also gave a Median fluorescence intensity (MFI) [4] of 23 MFI, a Median fluorescence intensity (MFI) [5] of 3 MFI and a Median fluorescence intensity (MFI) [6] of 14 MFI. It also gave a Median fluorescence intensity (MFI) [7] of 5 MFI, a Median fluorescence intensity (MFI) [8] of 8 MFI and a Median fluorescence intensity (MFI) [9] of 12 MFI. The Median fluorescence intensity (MFI) [10] was 14 MFI, the Median fluorescence intensity (MFI) [11] was 4 MFI and the Median fluorescence intensity (MFI) [12] was 13 MFI.
